In assay [1] the target is Biotin-conjugated ^MBPPBD (immobilised ligand of BLI) (human) (UniProt P53350). Kind of assay: BLI; biotin-conjugated ^MBPPBD immobilised on streptavidin sensors, CENP-U variants as analyte; 25 °C, 20 mM HEPES pH 7.5, 2.5% glycerol, 300 mM NaCl, 0.1 mM TCEP, 0.3 g/L BSA, 0.05% Tween20; KD from koff/kon of the global fit. On the technique in general: Biolayer interferometry detects binding as a change in optical thickness at a sensor tip.

Assay [2] concerns the target singly phosphorylated pT98 peptide of CENP-U (ITC) (human). Kind of assay: ITC; phosphorylated CENP-U construct in the cell, ^MBPPBD in the syringe; 25 °C, 20 mM Hepes pH 7.5, 300 mM NaCl, 1 mM TCEP, 1% glycerol; one set of sites model. In general terms: Isothermal titration calorimetry measures the heat released or taken up as one component is titrated into another.
The target in assay [3] is T1, ^MBPPBD (6xHis-MBP-TEV-PLK1^345-603) (human, UniProt P53350 345-603).
T1 construct: PLK1, human, residues 345-603 (Polo-box domain construct); The plasmids paragraph speaks of expression in insect cells, the purification paragraph of E. coli BL21 (DE3); TEV site between MBP and PLK1; source: E. coli BL21 (DE3), purified (HisTALON, SEC); not shown: MBP, N-terminal, kept
T1 sequence (P53350 345-603): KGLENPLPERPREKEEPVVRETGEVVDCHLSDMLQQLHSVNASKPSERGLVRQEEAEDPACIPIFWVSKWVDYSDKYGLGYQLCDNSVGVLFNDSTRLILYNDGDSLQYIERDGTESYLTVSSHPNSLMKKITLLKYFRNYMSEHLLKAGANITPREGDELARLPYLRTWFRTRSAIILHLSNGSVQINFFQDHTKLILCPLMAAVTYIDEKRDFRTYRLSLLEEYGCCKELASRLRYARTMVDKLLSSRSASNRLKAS
Nature of the assay: BLI; biotin-conjugated phosphorylated ^MBPCENP-U^58-114 immobilised on streptavidin sensors, ^MBPPBD or ^6HisPLK1^FL as analyte; 25 °C, 20 mM HEPES pH 7.5, 2.5% glycerol, 300 mM NaCl, 0.1 mM TCEP, 0.3 g/L BSA, 0.05% Tween20; one site for pT78, two sites (KD1, KD2) for pT98 and pT78/pT98. Conditions: both partners purified.

The target in assay [4] is T2, ^6HisPLK1^FL (6xHis-TEV-PLK1, full length) (human, UniProt P53350 1-603).
T2 construct: PLK1, human, 603 residues, full length; also called full length PLK1; source: insect cells (plasmid from a previous study), purified (HisTALON, SEC); not shown: 6xHis, N-terminal, kept
T2 sequence (P53350 whole entry): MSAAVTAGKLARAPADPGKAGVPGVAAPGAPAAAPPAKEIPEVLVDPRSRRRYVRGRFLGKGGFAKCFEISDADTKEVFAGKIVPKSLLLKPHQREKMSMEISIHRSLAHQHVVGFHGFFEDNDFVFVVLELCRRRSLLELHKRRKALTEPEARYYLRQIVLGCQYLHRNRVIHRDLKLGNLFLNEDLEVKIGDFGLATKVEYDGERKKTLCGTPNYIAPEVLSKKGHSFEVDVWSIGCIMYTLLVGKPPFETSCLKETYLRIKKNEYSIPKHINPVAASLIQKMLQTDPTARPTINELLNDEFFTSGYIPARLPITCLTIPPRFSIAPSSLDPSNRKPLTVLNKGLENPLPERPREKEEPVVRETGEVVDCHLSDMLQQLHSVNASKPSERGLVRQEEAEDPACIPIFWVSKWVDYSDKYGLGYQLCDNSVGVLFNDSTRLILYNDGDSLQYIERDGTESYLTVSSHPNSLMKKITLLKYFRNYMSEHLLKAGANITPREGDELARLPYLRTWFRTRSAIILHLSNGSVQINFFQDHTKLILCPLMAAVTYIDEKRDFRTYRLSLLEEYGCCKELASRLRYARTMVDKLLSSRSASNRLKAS
The description is as above. Conditions: both partners purified.

Assay [5] addresses T3, Biotin-conjugated ^MBPPBD (immobilised ligand of BLI) (human, UniProt P53350 345-603, biotin (Gly-Gly-Gly-Gly-Biotin conjugated to the C-terminal PLPETG peptide by sortase A)).
T3 construct: PLK1, human, residues 345-603 (Polo-box domain construct); As m1 with a C-terminal PLPETG peptide used for biotin labelling; held on streptavidin sensors; also called immobilized PBD; source: E. coli BL21 (DE3), purified (HisTALON, SEC), biotin-labelled with sortase A; not shown: MBP, N-terminal, kept; PLPETG peptide conjugated with Gly-Gly-Gly-Gly-Biotin, C-terminal, kept
Nature of the assay: BLI; biotin-conjugated ^MBPPBD immobilised on streptavidin sensors, CENP-U variants as analyte; 25 °C, 20 mM HEPES pH 7.5, 2.5% glycerol, 300 mM NaCl, 0.1 mM TCEP, 0.3 g/L BSA, 0.05% Tween20; KD from koff/kon of the global fit. Particulars: both partners purified.

Assay [6] deals with T1, ^MBPPBD (6xHis-MBP-TEV-PLK1^345-603). Kind of assay: SEC; analytical SEC, Superdex 200 5/150, 20 mM Bis-tris/HCl pH 6.5, 250 mM NaCl, 5% glycerol, 1 mM TCEP, 4 °C; PBD added 2:1 to the CENP-U variant (10 µM ^MBPPBD and 5 µM ^MBPCENP-U^58-114 in Fig. 1C). Particulars: both partners purified. On the technique in general: SEC sorts molecules by how far they enter the pores of the column.

Assay [7] has the same target. Nature of the assay: ITC; phosphorylated CENP-U construct in the cell, ^MBPPBD in the syringe; 25 °C, 20 mM Hepes pH 7.5, 300 mM NaCl, 1 mM TCEP, 1% glycerol; one set of sites model. Conditions: both partners purified.

Non-standard residues stand in square brackets, D forms with d. No end group written: not given here. pT = C[C@@H](OP(=O)(O)O)[C@H](N)C(=O)O; MBP = maltose-binding protein

What is called Kd is the concentration at which binding is half-saturated. In general, koff refers to the rate constant with which the complex falls apart. Usually kon stands for the second-order rate constant of association.

T3 sequence (P53350 345-603): as the sequence (P53350 345-603) above
Sequence of Biotin-conjugated ^MBPPBD (immobilised ligand of BLI) (human) (P53350 345-603): as above

In assay [1], “^MBPCENP-U^84-114/pT98 (from UniProt Q71F23 84-114) (domain or fragment)” had a dissociation constant (Kd) of 400 nM, a koff of 0.0028 s⁻¹ and an on-rate constant (kon) of 7100 M⁻¹ s⁻¹.
In assay [2], “^MBPPBD (6xHis-MBP-TEV-PLK1^345-603) (from UniProt P53350 345-603) (domain or fragment)” returned a dissociation constant (Kd) of 380 nM.

B1: biotin-conjugated ^MBPCENP-U^58-114/pT78 (immobilised ligand of BLI) (domain or fragment, human, UniProt Q71F23 58-114, looked up)
chain: LGENEKDEETYETFDPPLHS[pT]AIYADEEEFSKHCGLSLSSTPPGKEAKRSSDTSGNE
modifications: not fully specified (N-terminus); also: N-terminal MBP fusion protein, C-terminal PLPETG tag ligated by sortase A to Gly4-biotin
notes: source: E. coli BL21 (DE3), purified; phosphorylated in vitro with PLK1; biotin-labelled with sortase A; not shown: MBP, N-terminal, kept; PLPETG peptide conjugated with Gly-Gly-Gly-Gly-Biotin, C-terminal, kept
Turning to B1, in assay [3], the Kd came to 1.9 nM, the dissociation rate constant (koff) came to 0.00052 s⁻¹ and the kon came out at 280000 M⁻¹ s⁻¹. Also, in assay [4], the dissociation constant Kd turned out to be 22 nM, the koff amounted to 0.0033 s⁻¹ and the kon was determined as 150000 M⁻¹ s⁻¹.

B2: ^MBPCENP-U^58-114/pT78/F87A/T98V (domain or fragment, human, UniProt Q71F23 58-114, looked up)
chain: LGENEKDEETYETFDPPLHS[pT]AIYADEEEASKHCGLSLSSVPPGKEAKRSSDTSGNE
modifications: also: N-terminal MBP fusion protein
notes: source: E. coli BL21 (DE3), purified; phosphorylated in vitro with only PLK1; not shown: MBP, N-terminal, kept
In assay [5], B2 came in with a Kd of 7.2 nM, a koff of 0.001 s⁻¹ and a kon of 140000 M⁻¹ s⁻¹.

B3: ^MBPCENP-U^84-114 F87A, phosphorylated with CDK1 (domain or fragment, human, UniProt Q71F23 84-114, looked up)
chain: EEEASKHCGLSLSS[pT]PPGKEAKRSSDTSGNE
modifications: also: N-terminal MBP fusion protein
notes: also called F87 to alanine mutant of Motif 2; source: E. coli BL21 (DE3), purified; phosphorylated in vitro with CDK1; not shown: MBP, N-terminal, kept
In the case of B3, the binding result in assay [6] is given as “binds”.

B4: ^MBPCENP-U^58-83/pT78 (domain or fragment, human, UniProt Q71F23 58-83, looked up)
chain: LGENEKDEETYETFDPPLHS[pT]AIYAD
modifications: also: N-terminal MBP fusion protein
notes: CENP-U (PBIP1), human, residues 58-83 (Motif 1); also called PLK1-phosphorylated ^MBPCENP-U^58-83; phosphorylated Motif 1; source: E. coli BL21 (DE3), purified; not shown: MBP, N-terminal, kept
In assay [5], B4 yielded a Kd of 2.5 nM, a koff of 0.00034 s⁻¹ and an on-rate (kon) of 140000 M⁻¹ s⁻¹.

B5: ^MBPCENP-U^58-114 (6xHis-MBP-TEV-CENP-U^58-114), unphosphorylated (domain or fragment, human, UniProt Q71F23 58-114, looked up)
chain: {6xHis-MBP-TEV}-LGENEKDEETYETFDPPLHSTAIYADEEEFSKHCGLSLSSTPPGKEAKRSSDTSGNE
notes: The plasmids paragraph speaks of expression in insect cells, the purification paragraph of E. coli; source: E. coli BL21 (DE3), purified (HisTALON, Resource Q, SEC); not shown: MBP, N-terminal, kept
Turning to B5, in assay [6], the binding result is recorded as “binds”.
For LGENEKDEETYETFDPPLHS[pT]AIYAD (domain or fragment) [singly phosphorylated pT78 peptide of CENP-U (ITC)], in assay [7], the Kd is about 1.9 nM.

B6: ^MBPCENP-U^58-83 (6xHis-MBP-TEV-CENP-U^58-83), unphosphorylated (domain or fragment, human, UniProt Q71F23 58-83, looked up)
chain: {6xHis-MBP-TEV}-LGENEKDEETYETFDPPLHSTAIYAD
notes: CENP-U (PBIP1), human, residues 58-83 (Motif 1); also called Motif 1; unphosphorylated Motif 1; source: E. coli BL21 (DE3), purified (HisTALON, Resource Q, SEC); not shown: MBP, N-terminal, kept
In assay [5], B6 gave a Kd of 10000 nM, a koff of 0.00028 s⁻¹ and a kon of 28 M⁻¹ s⁻¹.

B7: ^MBPCENP-U^58-83/Y68A/F71A/pT78 (domain or fragment, human, UniProt Q71F23 58-83, looked up)
chain: LGENEKDEETAETADPPLHS[pT]AIYAD
modifications: also: N-terminal MBP fusion protein
notes: CENP-U (PBIP1), human, residues 58-83 (Motif 1); source: E. coli BL21 (DE3), purified; not shown: MBP, N-terminal, kept
In assay [5], B7 came in with a Kd of 230 nM, a koff of 0.011 s⁻¹ and a kon of 47000 M⁻¹ s⁻¹.

B8: ^MBPCENP-U^58-83/F71A/pT78 (domain or fragment, human, UniProt Q71F23 58-83, looked up)
chain: LGENEKDEETYETADPPLHS[pT]AIYAD
modifications: also: N-terminal MBP fusion protein
notes: as for B7
In assay [5], B8 displayed a Kd of 88 nM, a koff of 0.0077 s⁻¹ and an on-rate (kon) of 87000 M⁻¹ s⁻¹.

These data come from publication PMC13161223, “Molecular anatomy of PLK1 master docking motifs” (Nature Communications, 2026).
